Substrate in this data set: Nc1ncnc2c1ncn2[C@@H]1O[C@H](COP(=O)(O)OP(=O)(O)OP(=O)(O)O)[C@@H](O)[C@H]1O
The data set is described as follows: ATPase assay. Type of data set: biochemical, Saccharomyces cerevisiae. Conditions: Mg-ATP.

[1] abbreviates: no cluster, table prints the error as ± 5.3.

Changes are numbered by the printed parent chain. Names may count otherwise.

We go through two proteins from paper PMC4052440.

B1: yeast Atm1p (Saccharomyces cerevisiae S288C) (protein)
chain: SPVIFTVSKLSTQRPLLFNSAVNLWNQAQKDITHKKSVEQFSSAPKVKTQVKKTSKAPTLSELKILKDLFRYIWPKGNNKVRIRVLIALGLLISAKILNVQVPFFFKQTIDSMNIAWDDPTVALPAAIGLTILCYGVARFGSVLFGELRNAVFAKVAQNAIRTVSLQTFQHLMKLDLGWHLSRQTGGLTRAMDRGTKGISQVLTAMVFHIIPISFEISVVCGILTYQFGASFAAITFSTMLLYSIFTIKTTAWRTHFRRDANKADNKAASVALDSLINFEAVKYFNNEKYLADKYNGSLMNYRDSQIKVSQSLAFLNSGQNLIFTTALTAMMYMGCTGVIGGNLTVGDLVLINQLVFQLSVPLNFLGSVYRDLKQSLIDMETLFKLRKNEVKIKNAERPLMLPENVPYDITFENVTFGYHPDRKILKNASFTIPAGWKTAIVGSSGSGKSTILKLVFRFYDPESGRILINGRDIKEYDIDALRKVIGVVPQDTPLFNDTIWENVKFGRIDATDEEVITVVEKAQLAPLIKKLPQGFDTIVGERGLMISGGEKQRLAIARVLLKNARIMFFDEATSALDTHTEQALLRTIRDNFTSGSRTSVYIAHRLRTIADADKIIVLDNGRVREEGKHLELLAMPGSLYRELWTIQEDLDHLENELKDQQEL
Regarding B1, under setting [1], the Km was found to be 54.6 ± 0.4 µM and the kcat amounted to 0.0322 ± 0.0005 s⁻¹.

B2: yeast Atm1p (Saccharomyces cerevisiae S288C; R284E) (protein)
chain: B1 chain with R258E
Consider B2, for which the Km (from the cluster-activation fit, table title prints R48E, column R284E) was determined as 55.0 ± 16.5 µM.

A word on the Km: it is the concentration of substrate that gives half-maximal velocity. Usually kcat stands for the number of substrate molecules converted per active site and unit of time at saturation.
